In article PMC11102832:
Where two headings read alike, the source gives them in different places.

Experiments:
[1] = target: AM1 receptor (CLR-RAMP2) (human) (UniProt Q16602)
[2] = target: AM2 receptor (CLR-RAMP3) (human) (UniProt Q16602)
[3] = target: AM1 receptor (CLR-RAMP2) (human) (UniProt Q16602); remark: listed apart in the source
[4] = target: AM2 receptor (CLR-RAMP3) (human) (UniProt Q16602); remark: listed apart in the source
[5] = target: CGRP receptor (CLR-RAMP1) (human) (UniProt Q16602)
[6] = target: CGRP receptor (CLR-RAMP1) (human) (UniProt Q16602); remark: listed apart in the source
[7] = target: AM1 receptor (CLR-RAMP2) (human) (UniProt Q16602); remark: listed apart in the source
[8] = target: AM2 receptor (CLR-RAMP3) (human) (UniProt Q16602); remark: listed apart in the source
[9] = target: CGRP receptor (CLR-RAMP1) (human) (UniProt Q16602); remark: listed apart in the source
[10] = target: calcitonin receptor (CTR) (human)
[11] = target: amylin1 receptor (CTR-RAMP1) (human) (UniProt O60894)
Sequence of amylin1 receptor (CTR-RAMP1) (human) (O60894 whole entry, looked up): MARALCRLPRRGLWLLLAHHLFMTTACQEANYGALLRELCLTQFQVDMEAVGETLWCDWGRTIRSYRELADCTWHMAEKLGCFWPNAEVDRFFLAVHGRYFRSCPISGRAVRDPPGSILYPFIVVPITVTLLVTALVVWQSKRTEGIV

Sequence of AM1 receptor (CLR-RAMP2) (human) (Q16602 23-461, chain 1 of 2): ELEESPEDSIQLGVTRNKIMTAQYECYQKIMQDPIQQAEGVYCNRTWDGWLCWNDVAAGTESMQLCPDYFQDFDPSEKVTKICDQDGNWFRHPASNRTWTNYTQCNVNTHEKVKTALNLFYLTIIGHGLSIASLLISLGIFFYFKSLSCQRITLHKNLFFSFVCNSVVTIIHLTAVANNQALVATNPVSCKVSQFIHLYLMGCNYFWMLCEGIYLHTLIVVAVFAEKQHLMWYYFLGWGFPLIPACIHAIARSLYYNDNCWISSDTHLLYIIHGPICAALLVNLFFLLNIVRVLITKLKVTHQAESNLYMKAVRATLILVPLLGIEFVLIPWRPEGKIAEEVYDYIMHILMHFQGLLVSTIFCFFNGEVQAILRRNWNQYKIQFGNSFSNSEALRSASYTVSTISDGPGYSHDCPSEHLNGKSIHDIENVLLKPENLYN
Sequence of AM1 receptor (CLR-RAMP2) (human) (O60895 43-175, chain 2 of 2, further chain): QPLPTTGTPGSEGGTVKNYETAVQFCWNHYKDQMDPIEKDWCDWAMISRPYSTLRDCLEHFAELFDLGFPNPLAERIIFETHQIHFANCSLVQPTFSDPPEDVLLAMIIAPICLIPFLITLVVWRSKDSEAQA
Sequence of CGRP receptor (CLR-RAMP1) (human) (Q16602 23-461, chain 1 of 2): as the sequence (Q16602 23-461, chain 1 of 2) above
Sequence of CGRP receptor (CLR-RAMP1) (human) (O60894 27-148, chain 2 of 2, further chain): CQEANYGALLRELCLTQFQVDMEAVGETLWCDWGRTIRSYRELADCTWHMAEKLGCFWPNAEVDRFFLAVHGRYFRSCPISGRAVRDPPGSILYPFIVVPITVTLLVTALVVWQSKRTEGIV
Sequence of AM2 receptor (CLR-RAMP3) (human) (Q16602 23-461, chain 1 of 2): as the sequence (Q16602 23-461, chain 1 of 2) above
Sequence of AM2 receptor (CLR-RAMP3) (human) (O60896 24-148, chain 2 of 2, further chain): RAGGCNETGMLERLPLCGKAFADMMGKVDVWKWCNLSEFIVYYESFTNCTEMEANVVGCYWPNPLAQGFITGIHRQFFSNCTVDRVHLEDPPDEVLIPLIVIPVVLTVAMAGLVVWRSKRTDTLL
Sequence of calcitonin receptor (CTR) (human) (P30988 25-474): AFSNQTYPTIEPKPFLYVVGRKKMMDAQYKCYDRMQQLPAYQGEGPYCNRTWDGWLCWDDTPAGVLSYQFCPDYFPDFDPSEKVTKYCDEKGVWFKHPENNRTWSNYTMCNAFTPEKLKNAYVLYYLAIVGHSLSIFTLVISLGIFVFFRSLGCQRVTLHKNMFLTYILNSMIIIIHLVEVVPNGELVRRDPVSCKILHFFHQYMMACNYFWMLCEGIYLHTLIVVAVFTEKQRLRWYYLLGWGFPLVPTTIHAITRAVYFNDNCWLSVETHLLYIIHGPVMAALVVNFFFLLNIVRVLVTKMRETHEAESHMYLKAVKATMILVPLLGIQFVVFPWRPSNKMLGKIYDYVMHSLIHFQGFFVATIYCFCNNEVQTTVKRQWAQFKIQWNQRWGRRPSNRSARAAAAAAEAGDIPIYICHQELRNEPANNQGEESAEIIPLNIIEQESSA
Sequence of βCGRP(1-37) (P10092 82-118): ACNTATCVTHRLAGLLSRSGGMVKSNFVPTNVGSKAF

Molecule	pEC50 of cAMP signaling, end-point concentration-response (CAMYEL BRET, COS-7) [1]	pEC50 of cAMP signaling, end-point concentration-response (CAMYEL BRET, COS-7) [2]	pEC50 of cAMP signaling, end-point concentration-response (CAMYEL BRET, COS-7) [3]	pEC50 of cAMP signaling, end-point concentration-response (CAMYEL BRET, COS-7) [4]	pEC50 of cAMP signaling, end-point concentration-response (CAMYEL BRET, COS-7) [5]	also measured
AM(13-52) (peptide)	9.54	9.63	9.52	9.48	–	–
AM2/IMD(8-47) [R23K/R33K] (peptide)	–	–	7.59	8.74	8.22	–
AM2/IMD(8-47) (peptide)	8.24	9.33	8.51	9.27	9.17	pEC50 of cAMP signaling, end-point concentration-response (CAMYEL BRET, COS-7) [6]: 8.86
AM2/IMD(8-47) [R23K] (peptide)	–	–	7.62	9	8.51	–
AM2/IMD(8-47) [R33K] (peptide)	–	–	7.8	9.01	8.54	–
AM2/IMD(1-47) (peptide)	7.66	8.9	–	–	–	pEC50 of cAMP signaling, end-point concentration-response (CAMYEL BRET, COS-7) [6]: 7.81
AM2/IMD-53 (peptide)	7.94	8.84	–	–	–	pEC50 of cAMP signaling, end-point concentration-response (CAMYEL BRET, COS-7) [6]: 8.36
AM2(8-22)-AM(29-38)-AM2(34-47) (peptide)	–	–	–	–	–	pEC50 of cAMP signaling, end-point concentration-response (CAMYEL BRET, COS-7) [7]: 7.34; pEC50 of cAMP signaling, end-point concentration-response (CAMYEL BRET, COS-7) [8]: 8.72; pEC50 of cAMP signaling, end-point concentration-response (CAMYEL BRET, COS-7) [9]: 8.09
βCGRP(1-37) (from UniProt P10092 82-118) (peptide)	–	–	–	–	–	pEC50 of cAMP signaling, end-point concentration-response (CAMYEL BRET, COS-7) [10]: 7.79
AM(13-38)-AM2(23-33)-AM(39-52) (peptide)	–	–	–	–	–	pEC50 of cAMP signaling, end-point concentration-response (CAMYEL BRET, COS-7) [7]: 8.26; pEC50 of cAMP signaling, end-point concentration-response (CAMYEL BRET, COS-7) [8]: 8.42; pEC50 of cAMP signaling, end-point concentration-response (CAMYEL BRET, COS-7) [9]: 8.08
AM2/IMD(8-47) [R23Q/R33K] (peptide)	–	–	6.9	7.75	7.5	–
KCNTATCATQRLANFLVRSSNNLGPVLPPTNVGSNTY [rat Amylin(1-37)]	–	–	–	–	–	pEC50 of cAMP signaling, end-point concentration-response (CAMYEL BRET, COS-7) [11]: 9.72; pEC50 of cAMP signaling, end-point concentration-response (CAMYEL BRET, COS-7) [10]: 7.63
